T1: VEGF (human, UniProt P15692)
T1 chain: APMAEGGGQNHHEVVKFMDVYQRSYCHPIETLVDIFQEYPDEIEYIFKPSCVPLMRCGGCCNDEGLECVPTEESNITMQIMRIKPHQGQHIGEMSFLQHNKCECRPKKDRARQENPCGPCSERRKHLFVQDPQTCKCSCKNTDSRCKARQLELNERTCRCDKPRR

B1: DVD026 HGF arm (antibody, V domains shown)
VH: QVQLVESGGGLVKPGGSLRLSCAASGFTFSDYYMSWIRQAPGKGLEWVSYISSSGSTIYYADSVKGRFTISRDNAKNSLYLQMNSLRAEDTAVYYCARDEYNSGWYVLFDYWGQGTLVTVSS
VL: DIQMTQSPSSVSASVGDRVTITCRASQGISSWLAWYQQKPGKAPNLLIYEASSLQSGVPSRFGGSGSGTDFTLTISSLQPEDFATYYCQQANGFPWTFGQGTKVEIKR
modifications: DVD-Ig outer
B2: DVD467 VEGF arm (antibody, V domains shown)
VH: EVQLVESGGGLVQPGGSLRLSCAASGFTINASWIHWVRQAPGKGLEWVGAIYPYSGYTNYADSVKGRFTISADTSKNTAYLQMNSLRAEDTAVYYCARWGHSTSPWAMDYWGQGTLVTVSS
VL: DIQMTQSPSSLSASVGDRVTITCRASQVIRRSLAWYQQKPGKAPKLLIYAASNLASGVPSRFSGSGSGTDFTLTISSLQPEDFATYYCQQSNTSPLTFGQGTKVEIKR
B3: DVD474 VEGF arm (antibody, V domains shown)
VH: EVQLVESGGGLVQPGGSLRLSCAASGFTINASWIHWVRQAPGKGLEWVGAIYPYSGYTNYADSVKGRFTISADTSKNTAYLQMNSLRAEDTAVYYCARWGHSTSPWAMDYWGQGTLVTVSS
VL: DIQMTQSPSSLSASVGDRVTITCRASQVIRRSLAWYQQKPGKAPKLLIYAASNLASGVPSRFSGSGSGTDFTLTISSLQPEDFATYYCQQSNTSPLTFGQGTKVEIKR
B4: DVD533 VEGF arm (antibody, V domains shown)
VH: EVQLVESGGGLVQPGGSLRLSCAASGFTINASWIHWVRQAPGKGLEWVGAIYPYSGYTNYADSVKGRFTISADTSKNTAYLQMNSLRAEDTAVYYCARWGHSTSPWAMDYWGQGTLVTVSS
VL: DIQMTQSPSSLSASVGDRVTITCRASQVIRRSLAWYQQKPGKAPKLLIYAASNLASGVPSRFSGSGSGTDFTLTISSLQPEDFATYYCQQSNTSPLTFGQGTKVEIKR
B5: DVD510 VEGF arm (antibody, V domains shown)
VH: EVQLVESGGGLVQPGGSLRLSCAASGFTINASWIHWVRQAPGKGLEWVGAIYPYSGYTNYADSVKGRFTISADTSKNTAYLQMNSLRAEDTAVYYCARWGHSTSPWAMDYWGQGTLVTVSS
VL: DIQMTQSPSSLSASVGDRVTITCRASQVIRRSLAWYQQKPGKAPKLLIYAASNLASGVPSRFSGSGSGTDFTLTISSLQPEDFATYYCQQSNTSPLTFGQGTKVEIKR
B6: DVD527 VEGF arm (antibody, V domains shown)
VH: EVQLVESGGGLVQPGGSLRLSCAASGFTINASWIHWVRQAPGKGLEWVGAIYPYSGYTNYADSVKGRFTISADTSKNTAYLQMNSLRAEDTAVYYCARWGHSTSPWAMDYWGQGTLVTVSS
VL: DIQMTQSPSSLSASVGDRVTITCRASQVIRRSLAWYQQKPGKAPKLLIYAASNLASGVPSRFSGSGSGTDFTLTISSLQPEDFATYYCQQSNTSPLTFGQGTKVEIKR
B7: DVD509 VEGF arm (antibody, V domains shown)
VH: EVQLVESGGGLVQPGGSLRLSCAASGFTINASWIHWVRQAPGKGLEWVGAIYPYSGYTNYADSVKGRFTISADTSKNTAYLQMNSLRAEDTAVYYCARWGHSTSPWAMDYWGQGTLVTVSS
VL: DIQMTQSPSSLSASVGDRVTITCRASQVIRRSLAWYQQKPGKAPKLLIYAASNLASGVPSRFSGSGSGTDFTLTISSLQPEDFATYYCQQSNTSPLTFGQGTKVEIKR
B8: DVD516 VEGF arm (antibody, V domains shown)
VH: EVQLVESGGGLVQPGGSLRLSCAASGFTINASWIHWVRQAPGKGLEWVGAIYPYSGYTNYADSVKGRFTISADTSKNTAYLQMNSLRAEDTAVYYCARWGHSTSPWAMDYWGQGTLVTVSS
VL: DIQMTQSPSSLSASVGDRVTITCRASQVIRRSLAWYQQKPGKAPKLLIYAASNLASGVPSRFSGSGSGTDFTLTISSLQPEDFATYYCQQSNTSPLTFGQGTKVEIKR
B9: DVD458 VEGF arm (antibody, V domains shown)
VH: EVQLVESGGGLVQPGGSLRLSCAASGFTINASWIHWVRQAPGKGLEWVGAIYPYSGYTNYADSVKGRFTISADTSKNTAYLQMNSLRAEDTAVYYCARWGHSTSPWAMDYWGQGTLVTVSS
VL: DIQMTQSPSSLSASVGDRVTITCRASQVIRRSLAWYQQKPGKAPKLLIYAASNLASGVPSRFSGSGSGTDFTLTISSLQPEDFATYYCQQSNTSPLTFGQGTKVEIKR
B10: DVD452 VEGF arm (antibody, V domains shown)
VH: EVQLVESGGGLVQPGGSLRLSCAASGFTINASWIHWVRQAPGKGLEWVGAIYPYSGYTNYADSVKGRFTISADTSKNTAYLQMNSLRAEDTAVYYCARWGHSTSPWAMDYWGQGTLVTVSS
VL: DIQMTQSPSSLSASVGDRVTITCRASQVIRRSLAWYQQKPGKAPKLLIYAASNLASGVPSRFSGSGSGTDFTLTISSLQPEDFATYYCQQSNTSPLTFGQGTKVEIKR
B11: DVD445 VEGF arm (antibody, V domains shown)
VH: EVQLVESGGGLVQPGGSLRLSCAASGFTINASWIHWVRQAPGKGLEWVGAIYPYSGYTNYADSVKGRFTISADTSKNTAYLQMNSLRAEDTAVYYCARWGHSTSPWAMDYWGQGTLVTVSS
VL: DIQMTQSPSSLSASVGDRVTITCRASQVIRRSLAWYQQKPGKAPKLLIYAASNLASGVPSRFSGSGSGTDFTLTISSLQPEDFATYYCQQSNTSPLTFGQGTKVEIKR
B12: DVD534 VEGF arm (antibody, V domains shown)
VH: EVQLVESGGGLVQPGGSLRLSCAASGFTINASWIHWVRQAPGKGLEWVGAIYPYSGYTNYADSVKGRFTISADTSKNTAYLQMNSLRAEDTAVYYCARWGHSTSPWAMDYWGQGTLVTVSS
VL: DIQMTQSPSSLSASVGDRVTITCRASQVIRRSLAWYQQKPGKAPKLLIYAASNLASGVPSRFSGSGSGTDFTLTISSLQPEDFATYYCQQSNTSPLTFGQGTKVEIKR
B13: DVD473 VEGF arm (antibody, V domains shown)
VH: EVQLVESGGGLVQPGGSLRLSCAASGFTINASWIHWVRQAPGKGLEWVGAIYPYSGYTNYADSVKGRFTISADTSKNTAYLQMNSLRAEDTAVYYCARWGHSTSPWAMDYWGQGTLVTVSS
VL: DIQMTQSPSSLSASVGDRVTITCRASQVIRRSLAWYQQKPGKAPKLLIYAASNLASGVPSRFSGSGSGTDFTLTISSLQPEDFATYYCQQSNTSPLTFGQGTKVEIKR
B14: DVD479 VEGF arm (antibody, V domains shown)
VH: EVQLVESGGGLVQPGGSLRLSCAASGFTINASWIHWVRQAPGKGLEWVGAIYPYSGYTNYADSVKGRFTISADTSKNTAYLQMNSLRAEDTAVYYCARWGHSTSPWAMDYWGQGTLVTVSS
VL: DIQMTQSPSSLSASVGDRVTITCRASQVIRRSLAWYQQKPGKAPKLLIYAASNLASGVPSRFSGSGSGTDFTLTISSLQPEDFATYYCQQSNTSPLTFGQGTKVEIKR
B15: DVD503 VEGF arm (antibody, V domains shown)
VH: EVQLVESGGGLVQPGGSLRLSCAASGFTINASWIHWVRQAPGKGLEWVGAIYPYSGYTNYADSVKGRFTISADTSKNTAYLQMNSLRAEDTAVYYCARWGHSTSPWAMDYWGQGTLVTVSS
VL: DIQMTQSPSSLSASVGDRVTITCRASQVIRRSLAWYQQKPGKAPKLLIYAASNLASGVPSRFSGSGSGTDFTLTISSLQPEDFATYYCQQSNTSPLTFGQGTKVEIKR
B16: DVD464 VEGF arm (antibody, V domains shown)
VH: EVQLVESGGGLVQPGGSLRLSCAASGFTINASWIHWVRQAPGKGLEWVGAIYPYSGYTNYADSVKGRFTISADTSKNTAYLQMNSLRAEDTAVYYCARWGHSTSPWAMDYWGQGTLVTVSS
VL: DIQMTQSPSSLSASVGDRVTITCRASQVIRRSLAWYQQKPGKAPKLLIYAASNLASGVPSRFSGSGSGTDFTLTISSLQPEDFATYYCQQSNTSPLTFGQGTKVEIKR
B17: DVD522 VEGF arm (antibody, V domains shown)
VH: EVQLVESGGGLVQPGGSLRLSCAASGFTINASWIHWVRQAPGKGLEWVGAIYPYSGYTNYADSVKGRFTISADTSKNTAYLQMNSLRAEDTAVYYCARWGHSTSPWAMDYWGQGTLVTVSS
VL: DIQMTQSPSSLSASVGDRVTITCRASQVIRRSLAWYQQKPGKAPKLLIYAASNLASGVPSRFSGSGSGTDFTLTISSLQPEDFATYYCQQSNTSPLTFGQGTKVEIKR
B18: DVD480 VEGF arm (antibody, V domains shown)
VH: EVQLVESGGGLVQPGGSLRLSCAASGFTINASWIHWVRQAPGKGLEWVGAIYPYSGYTNYADSVKGRFTISADTSKNTAYLQMNSLRAEDTAVYYCARWGHSTSPWAMDYWGQGTLVTVSS
VL: DIQMTQSPSSLSASVGDRVTITCRASQVIRRSLAWYQQKPGKAPKLLIYAASNLASGVPSRFSGSGSGTDFTLTISSLQPEDFATYYCQQSNTSPLTFGQGTKVEIKR
B19: DVD504 VEGF arm (antibody, V domains shown)
VH: EVQLVESGGGLVQPGGSLRLSCAASGFTINASWIHWVRQAPGKGLEWVGAIYPYSGYTNYADSVKGRFTISADTSKNTAYLQMNSLRAEDTAVYYCARWGHSTSPWAMDYWGQGTLVTVSS
VL: DIQMTQSPSSLSASVGDRVTITCRASQVIRRSLAWYQQKPGKAPKLLIYAASNLASGVPSRFSGSGSGTDFTLTISSLQPEDFATYYCQQSNTSPLTFGQGTKVEIKR
B20: DVD486 VEGF arm (antibody, V domains shown)
VH: EVQLVESGGGLVQPGGSLRLSCAASGFTINASWIHWVRQAPGKGLEWVGAIYPYSGYTNYADSVKGRFTISADTSKNTAYLQMNSLRAEDTAVYYCARWGHSTSPWAMDYWGQGTLVTVSS
VL: DIQMTQSPSSLSASVGDRVTITCRASQVIRRSLAWYQQKPGKAPKLLIYAASNLASGVPSRFSGSGSGTDFTLTISSLQPEDFATYYCQQSNTSPLTFGQGTKVEIKR
B21: DVD492 VEGF arm (antibody, V domains shown)
VH: EVQLVESGGGLVQPGGSLRLSCAASGFTINASWIHWVRQAPGKGLEWVGAIYPYSGYTNYADSVKGRFTISADTSKNTAYLQMNSLRAEDTAVYYCARWGHSTSPWAMDYWGQGTLVTVSS
VL: DIQMTQSPSSLSASVGDRVTITCRASQVIRRSLAWYQQKPGKAPKLLIYAASNLASGVPSRFSGSGSGTDFTLTISSLQPEDFATYYCQQSNTSPLTFGQGTKVEIKR

The binders below were run against T2, HGF (human, UniProt P14210) (assay: SPR).
T2 sequence (P14210 32-728): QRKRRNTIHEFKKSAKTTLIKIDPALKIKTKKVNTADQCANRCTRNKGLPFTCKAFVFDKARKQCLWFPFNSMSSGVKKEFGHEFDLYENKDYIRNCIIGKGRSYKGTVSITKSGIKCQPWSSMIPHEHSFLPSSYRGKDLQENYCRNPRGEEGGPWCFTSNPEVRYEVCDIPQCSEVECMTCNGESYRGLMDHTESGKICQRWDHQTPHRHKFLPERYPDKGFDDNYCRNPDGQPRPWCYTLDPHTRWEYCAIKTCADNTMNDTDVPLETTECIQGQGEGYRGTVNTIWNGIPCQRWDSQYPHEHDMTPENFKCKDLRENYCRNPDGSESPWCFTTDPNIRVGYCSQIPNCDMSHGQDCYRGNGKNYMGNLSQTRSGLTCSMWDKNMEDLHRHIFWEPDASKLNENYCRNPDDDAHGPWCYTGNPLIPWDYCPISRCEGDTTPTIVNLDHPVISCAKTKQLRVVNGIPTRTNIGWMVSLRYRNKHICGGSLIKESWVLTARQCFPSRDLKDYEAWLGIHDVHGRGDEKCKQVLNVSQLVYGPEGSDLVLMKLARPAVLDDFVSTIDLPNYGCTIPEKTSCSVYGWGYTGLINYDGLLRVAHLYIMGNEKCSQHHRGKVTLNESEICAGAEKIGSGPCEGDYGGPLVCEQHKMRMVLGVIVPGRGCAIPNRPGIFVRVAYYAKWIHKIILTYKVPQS
B1 gave a Kd of 0.0159 nM.

Molecular target: T1, VEGF
Assay: ELISA
With B2 the EC50 was 1810 nM. Binder B3 has an EC50 of 17.9 nM. Binder B4 has an EC50 of 1260 nM. Work on B5 yielded an EC50 of 23.9 nM. With B6 the EC50 was 2380 nM. With B7 the EC50 was 121 nM. Work on B8 yielded an EC50 of 24.6 nM. B9 gave an EC50 of 21.5 nM. In the case of B10, the EC50 is reported as 17.8 nM. B11 showed an EC50 of 14500 nM. Work on B12 yielded an EC50 of 23.6 nM. With B13 the EC50 was 388 nM. Binder B14 has an EC50 of 456 nM. In the case of B15, the EC50 is reported as 430 nM. Binder B16 has an EC50 of 19.3 nM. B17 gave an EC50 of 23.5 nM. Binder B18 has an EC50 of 23 nM. B19 showed an EC50 of 16.7 nM. B20 was tested, and the EC50 was 28 nM. Work on B21 yielded an EC50 of 8.42 nM.

Each binder was assayed against T2, HGF (assay: ELISA).
B1 showed an EC50 of 0.33 nM.

Reference: patent US9029508 (dated 2015)
